Assay results reported in publication doi:10.1101/2019.12.19.882902.

How the values were obtained:
[1] = molecular target: AF647-TFIIB (TFIIB-SNAP);TBP;TFIIF;RNA polymerase II (human;human;human;human, UniProt Q00403;P20226;P35269;P13984;P24928;P30876;P19387;O15514;P19388;P61218;P62487;P52 …, |||); test: EMSA
[2] = molecular target: TFIIB (untagged);TBP;TFIIF;RNA polymerase II (human;human;human;human, UniProt Q00403;P20226;P35269;P13984;P24928;P30876;P19387;O15514;P19388;P61218;P62487;P52 …, |||); test: EMSA
TFIIB (untagged);TBP;TFIIF;RNA polymerase II, sequence (Q00403 whole entry, chain 1 of 2): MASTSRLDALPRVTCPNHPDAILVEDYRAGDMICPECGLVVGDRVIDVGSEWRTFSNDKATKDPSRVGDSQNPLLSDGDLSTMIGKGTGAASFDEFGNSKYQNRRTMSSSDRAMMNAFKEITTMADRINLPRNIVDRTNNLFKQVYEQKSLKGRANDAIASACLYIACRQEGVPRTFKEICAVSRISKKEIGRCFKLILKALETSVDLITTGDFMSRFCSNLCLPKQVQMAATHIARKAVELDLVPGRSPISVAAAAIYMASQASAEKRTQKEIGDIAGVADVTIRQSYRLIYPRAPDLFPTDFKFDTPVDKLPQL
TFIIB (untagged);TBP;TFIIF;RNA polymerase II, sequence (P20226 whole entry, chain 2 of 2): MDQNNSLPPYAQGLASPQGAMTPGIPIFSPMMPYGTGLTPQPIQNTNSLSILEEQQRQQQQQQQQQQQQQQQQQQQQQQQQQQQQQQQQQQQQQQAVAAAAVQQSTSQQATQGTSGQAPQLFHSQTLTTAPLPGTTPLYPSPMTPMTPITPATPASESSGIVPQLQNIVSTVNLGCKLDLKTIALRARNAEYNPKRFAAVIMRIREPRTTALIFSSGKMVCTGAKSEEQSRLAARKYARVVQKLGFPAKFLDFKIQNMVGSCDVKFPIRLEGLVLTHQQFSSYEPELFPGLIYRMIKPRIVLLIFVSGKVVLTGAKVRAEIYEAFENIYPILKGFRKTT

AF647-TFIIB (TFIIB-SNAP);TBP;TFIIF;RNA polymerase II, sequence (Q00403 whole entry, chain 1 of 2): as the sequence (Q00403 whole entry, chain 1 of 2) above
AF647-TFIIB (TFIIB-SNAP);TBP;TFIIF;RNA polymerase II, sequence (P20226 whole entry, chain 2 of 2): as the sequence (P20226 whole entry, chain 2 of 2) above

B1: three piece AdMLP DNA (-40 to +37), pre-melted bubble (dsDNA)
DNA 1: AAGGGGGGCTATAAAAGGGGGTGGGGGCGCGAAGCAGGAGTAGACTATCTTTAATCACTA
DNA 2: CCTGAGGTTAGTGTGAGTAGTGATTAAAGATAGTGATGAGGACGAACGCGCCCCCACCCCCTTTTATAGCCCCCCTT
DNA 3: CTCACACTAACCTCAGG
binding result [1]: binds | binding result [2]: binds
